{
  "source": "paper PMC10308451",
  "target": "T1, EhDbr1 (RNA lariat debranching enzyme) (Entamoeba histolytica, UniProt C4M1P9 1-354)",
  "T1 sequence": "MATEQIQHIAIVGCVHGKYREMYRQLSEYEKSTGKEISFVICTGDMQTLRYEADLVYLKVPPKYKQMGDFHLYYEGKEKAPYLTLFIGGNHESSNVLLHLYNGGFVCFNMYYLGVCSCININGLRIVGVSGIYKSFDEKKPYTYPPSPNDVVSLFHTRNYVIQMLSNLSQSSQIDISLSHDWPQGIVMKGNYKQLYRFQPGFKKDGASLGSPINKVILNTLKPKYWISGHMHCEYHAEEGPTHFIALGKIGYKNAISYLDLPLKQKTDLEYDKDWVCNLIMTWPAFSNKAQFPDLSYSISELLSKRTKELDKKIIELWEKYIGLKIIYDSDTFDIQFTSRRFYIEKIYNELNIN",
  "assay": "X-ray crystallography",
  "data": [
    {"binder": "GUGUG (ssRNA, 5'-terminal phosphorothioate)", "note": "[PS-bRNA-1 5' product (hydrolyzed 2'-5' fragment, 5'-PS-GUGUG-3')]", "values": [
      {"measurement": "binding result", "result": "binds"}
    ]}
  ]
}
